# Reference: PMC11077872, “Sustainable production of multimeric and functional recombinant human adiponectin using genome-edited chickens” (Journal of Biological Engineering, 2024)
# “And” between values parts separate entries of the source, which are not always exact repeats. Identical values can stand only once.
# How the values were obtained:
# [1] = target: the molecule itself; assay: non-reducing SDS-PAGE with western blot; egg white of hens of generations G1-G4 diluted 500 times, mixed with native sample buffer (non-reducing), SDS-PAGE, anti-ADPN blot; with beta-mercaptoethanol and 95 °C mostly monomer at 28 kDa and a weak trimer signal
# [2] = target: the molecule itself; assay: non-reducing SDS-PAGE with western blot; 100 ng of purified or commercial hADPN, mixed with native sample buffer (non-reducing), SDS-PAGE, anti-ADPN blot; with beta-mercaptoethanol and 95 °C mostly monomer, some trimer
protein,measurement,setting,value
"recombinant human adiponectin (hADPN) from egg white of OVA ADPN knock-in genome-edited chickens (natural protein, UniProt Q15848 19-244, looked up, human adiponectin (ADPN), expressed from the chicken ovalbumin locus by knock-in; A mixture of hexamers and HMW multimers; also called EW-derived hADPN; EW-derived recombinant hADPN; source: egg white of OVA ADPN knock-in hens (G1-G4), diluted egg white; also purified from egg white (ammonium sulfate, HiTrap Q, Superdex 200 SEC)) ETTTQGPGVLLPLPKGACTGWMAGIPGHPGHNGAPGRDGRDGTPGEKGEKGDPGLIGPKGDIGETGVPGAEGPRGFPGIQGRKGEPGEGAYVYRSAFSVGLETYVTIPNMPIRFTKIFYNQQNHYDGSTGKFHCNIPGLYYFAYHITVYMKDVKVSLFKKDKAMLFTYDQYQENNVDQASGSVLLHLEVGDQVWLQVYGEGERNGLYADNDNDSTFTGFLLYHDTN",stoichiometry N,[1],6
"serum-derived commercial hADPN (natural protein, human, UniProt Q15848 19-244, looked up, human adiponectin (ADPN), native protein from human serum; also called native serum-derived hADPN; human serum hADPN (positive control); source: bought: ProSpec (CYT-024), derived from human serum) ETTTQGPGVLLPLPKGACTGWMAGIPGHPGHNGAPGRDGRDGTPGEKGEKGDPGLIGPKGDIGETGVPGAEGPRGFPGIQGRKGEPGEGAYVYRSAFSVGLETYVTIPNMPIRFTKIFYNQQNHYDGSTGKFHCNIPGLYYFAYHITVYMKDVKVSLFKKDKAMLFTYDQYQENNVDQASGSVLLHLEVGDQVWLQVYGEGERNGLYADNDNDSTFTGFLLYHDTN",stoichiometry N,[2],6
"High-Five (Hi-5) cell-derived recombinant hADPN (natural protein, human, UniProt Q15848 19-244, looked up, human adiponectin (ADPN); Mostly trimers, with hexamers and a weak monomer signal; also called Hi-5 cell hADPN; Hi-5 cell-derived commercial hADPN; source: bought: PeproTech (450-24), Hi-5 cells) ETTTQGPGVLLPLPKGACTGWMAGIPGHPGHNGAPGRDGRDGTPGEKGEKGDPGLIGPKGDIGETGVPGAEGPRGFPGIQGRKGEPGEGAYVYRSAFSVGLETYVTIPNMPIRFTKIFYNQQNHYDGSTGKFHCNIPGLYYFAYHITVYMKDVKVSLFKKDKAMLFTYDQYQENNVDQASGSVLLHLEVGDQVWLQVYGEGERNGLYADNDNDSTFTGFLLYHDTN",stoichiometry N,[2],3 and 6
"commercial recombinant hADPN derived from human embryonic kidney (HEK) 293 cells with a C-terminal FLAG tag (natural protein, UniProt Q15848 19-244, looked up, human adiponectin (ADPN); Mixture of trimers, hexamers and HMW forms; also called HEK293 cell hADPN; HEK293 cell-derived commercial hADPN; source: bought: Biovendor R&D (RD172023100), HEK293 cells; not shown: FLAG, C-terminal, kept) ETTTQGPGVLLPLPKGACTGWMAGIPGHPGHNGAPGRDGRDGTPGEKGEKGDPGLIGPKGDIGETGVPGAEGPRGFPGIQGRKGEPGEGAYVYRSAFSVGLETYVTIPNMPIRFTKIFYNQQNHYDGSTGKFHCNIPGLYYFAYHITVYMKDVKVSLFKKDKAMLFTYDQYQENNVDQASGSVLLHLEVGDQVWLQVYGEGERNGLYADNDNDSTFTGFLLYHDTN",stoichiometry N,[2],6 and 3
